The target of this experiment is human Nudt16 protein (human) (UniProt Q96DE0). The experiment can be described thus: cross-linking.

human Nudt16 protein, sequence (Q96DE0 whole entry): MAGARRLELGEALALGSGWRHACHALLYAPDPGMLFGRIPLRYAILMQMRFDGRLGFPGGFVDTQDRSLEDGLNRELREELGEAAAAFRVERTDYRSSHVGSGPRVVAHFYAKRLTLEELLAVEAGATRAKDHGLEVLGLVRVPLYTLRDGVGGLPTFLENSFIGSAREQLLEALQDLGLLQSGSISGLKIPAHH

On to “human Nudt16 protein (from UniProt Q96DE0 1-195) (enzyme)”, for which the stoichiometry N (in general, the number of molecules, sites or subunits per partner or assembly) stood at 2.

(Values after article PMC2566886.)
